The series deals with PpERF.A16::HIS (Prunus persica? (peach), UniProt A0A251PUJ2 1-382). The series is described as follows: BLI; response rises with protein concentration; BLI: PBS (1.4 mM KH2PO4, 2.7 mM KCl, 4.3 mM Na2HPO4, 137 mM NaCl, 0.02% Tween-20, pH 7.2), temperature not stated; EMSA: 5 mM MgCl2, 2.5% glycerol, 0.05% NP-40, 1 mg (so in the source) poly(dI-dC), 200 nM probe, 1 ug protein in 20 ul, 20 min, room temperature. The conditions noted are these: protein: recombinant; tags: HIS, trigger factor fusion (pCold-TF); label: biotin.
PpERF.A16::HIS, sequence (A0A251PUJ2 entry or part of it): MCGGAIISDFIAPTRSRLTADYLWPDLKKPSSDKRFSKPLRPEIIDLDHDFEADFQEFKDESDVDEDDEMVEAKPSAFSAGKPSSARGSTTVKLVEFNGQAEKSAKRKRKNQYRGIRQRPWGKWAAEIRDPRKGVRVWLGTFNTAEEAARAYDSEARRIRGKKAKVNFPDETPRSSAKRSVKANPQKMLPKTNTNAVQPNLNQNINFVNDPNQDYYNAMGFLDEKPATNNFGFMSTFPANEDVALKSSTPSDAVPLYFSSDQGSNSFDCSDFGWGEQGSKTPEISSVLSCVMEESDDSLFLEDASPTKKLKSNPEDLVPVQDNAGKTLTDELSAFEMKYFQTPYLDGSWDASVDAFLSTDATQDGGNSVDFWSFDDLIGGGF

B1: PpendoPGM promoter probe(s) (dsDNA)
DNA 1: CGTAAGGTCATTACGGCGCCGTTTCCCTTTTTAATTGGCG
DNA 2: CGCCAATTAAAAAGGGAAACGGCGCCGTAATGACCTTACG
Regarding B1, the binding result is listed as “binds”.

B2: PpACS1 promoter probe (dsDNA)
DNA 1: ACACCATCTCAACCATTGCCCCCACAATTGATAGCTTGC
DNA 2: GCAAGCTATCAATTGTGGGGGCAATGGTTGAGATGGTGT
Take B2: the binding result is reported as “binds”.

B3: PpACO1 promoter probe(s) (dsDNA)
DNA 1: AGTCAAAAGCTTTCGGCGTCAAGATTCCATTG
DNA 2: CAATGGAATCTTGACGCCGAAAGCTTTTGACT
Regarding B3, the binding result is “binds”.

Source of the values: publication PMC8484547, “The NAM/ATAF1/2/CUC2 transcription factor PpNAC.A59 enhances PpERF.A16 expression to promote ethylene biosynthesis during peach fruit ripening”.
